For 137 substances, amyloid nucleation score results are on record in the supplement of paper PMC12042874.

± gives the uncertainty stated by the source.

A short description of the data set: amyloid nucleation score (Sup35N fusion, yeast selection) (log enrichment); library NNK2; higher = more nucleation; inactive = no reads after selection. In short, it runs like this: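 Random libraries were run with three technical output replicates. In each, psi-negative yeast expressing Sup35N fused to peptides of 20 random codons were induced 24 hours with 100 μM copper sulfate and grown 7 days at 30°C on medium lacking adenine and uracil, and input and output plasmid inserts were Illumina-sequenced. The nucleation score is the DiMSum log enrichment of output over input reads, centred on the mode score of non-aggregating sequences, and sequences under 100 input reads were excluded.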
Regarding FRRCGPDGGIWLDLAACKKI, the amyloid nucleation score came out at 0.1 ± 0.38.

FRVIYDRHTGILRSHERAKG came in with an amyloid nucleation score of -0.551 ± 0.35.

Consider FRVPF, for which the amyloid nucleation score came to 2.03 ± 0.24.

In the case of FRVTIMVIQNSPTVSPGLAG, the amyloid nucleation score turned out to be 4.31 ± 0.08.

In turn, FRWGFVSPDRSIGDVFLQLC showed an amyloid nucleation score of -0.137 ± 1.1.

In the case of FRYAVPMCTFFADYFMSDQS, the amyloid nucleation score entry was “inactive”.

As for FRYHRTSCQSHSVWRTFTSF, the amyloid nucleation score was -0.884 ± 0.39.

For FRYRIYGGHLTINRIIYSLV, the amyloid nucleation score was -0.702 ± 1.1.

Substance FSCSLQRIGEMSRDKSYTPA returned an amyloid nucleation score of 0.503 ± 0.66.

The substance FSCSSDCLIFVSHRNRVLLN displayed an amyloid nucleation score of -0.596 ± 0.37.

FSFSEHRL: the amyloid nucleation score is 0.045 ± 0.79.

FSGFSLRSPTTRGGVCGKTV yielded an amyloid nucleation score of 0.575 ± 0.47.

Substance FSGSIVIAGGIVSMRDPGLR registered an amyloid nucleation score of -0.596 ± 0.79.

With FSHYLSRRGRPYHANCKEAL, the amyloid nucleation score is -0.922 ± 0.39.

With FSIGCVMGLAINLSGFALWV, the amyloid nucleation score worked out at 1.84 ± 0.14.

With FSIYYRGPRQVSTYRDLIPV, the amyloid nucleation score was -0.429 ± 0.37.

The substance FSLCANCNIMMPRSFLSYT showed an amyloid nucleation score of 5.24 ± 0.078.

Turning to FSLLD, the amyloid nucleation score is -0.264 ± 0.45.

For the substance FSRICKAMYQKSGYKINGIN, the amyloid nucleation score was -0.283 ± 1.

Take FSRMPLMDESFWFTCSICVM: the amyloid nucleation score stood at 2.64 ± 0.068.

In turn, FSRYGRMRFLHCSTFSLMPI returned an amyloid nucleation score of -0.07 ± 0.76.

In turn, FSSIDWLCRRCSQGNRAGID came in with an amyloid nucleation score of 0.371 ± 0.66.

As for FSSSWKGRFVNNSRVVGKSR, the amyloid nucleation score is -0.367 ± 0.43.

The substance FSTQGTPSSSLDWLNRLTVW showed an amyloid nucleation score of 0.102 ± 0.36.

For FSVCHVQDCSSAGRMYYLRL, the amyloid nucleation score was 3.98 ± 0.055.

FSVIICVTALVWACCCTRIV came in with an amyloid nucleation score of 1.09 ± 0.36.

The substance FSVLWEMDRLVHG returned an amyloid nucleation score of 0.95 ± 0.29.

In turn, FSWLSPMWYMLNDRKLYGNP yielded an amyloid nucleation score of 0.779 ± 0.42.

For FSWSYDVDIT, the amyloid nucleation score entry was “inactive”.

Take FSYPGWFGFRS: the amyloid nucleation score entry is “inactive”.

Substance FSYQSHY returned an amyloid nucleation score of 0.466 ± 0.23.

For FSYRCFINTSQFYSAIKIFL, the amyloid nucleation score stood at 0.691 ± 0.14.

Take FTIHWRVGCTQWLEAVIGYM: the amyloid nucleation score is 4.07 ± 0.1.

On to FTLGANLT, for which the amyloid nucleation score is -0.855 ± 0.76.

FTLKINVPETGTIVLPELGS: the amyloid nucleation score amounted to 0.235 ± 0.48.

On to FTLWFQTLARGGMLARNLFK, for which the amyloid nucleation score is -1.17 ± 0.75.

In turn, FTRTWLCIHAEYARCLGTCV had an amyloid nucleation score of 5.05 ± 0.053.

FTVKGTITVYFMVAV yielded an amyloid nucleation score of 2.17 ± 0.11.

In the case of FVEMYGLWPSFGVKRKVLKV, the amyloid nucleation score was -0.904 ± 0.53.

Regarding FVESVSEPALCIFKVSGYCS, the amyloid nucleation score was -0.685 ± 0.79.

For FVINSCENVARTHRVCQLAM, the amyloid nucleation score was -0.115 ± 0.37.

FVIVVFRPLGKWQRLFFCNC showed an amyloid nucleation score of 0.811 ± 0.21.

For the substance FVLCLDLHDESQERWETIRR, the amyloid nucleation score was 0.925 ± 0.67.

As to FVLHIMRLSCYCE, the amyloid nucleation score is -0.29 ± 0.45.

Regarding FVMNGPLWMTLANMSMNHNL, the amyloid nucleation score is 4.21 ± 0.06.

In turn, FVNIFIIHADYVGHRPAELR returned an amyloid nucleation score of 9.092 ± 0.081.

As to FVRHTHFG, the amyloid nucleation score is -1.21 ± 1.1.

In the case of FVTRGSVAMTQVGYNTVIRM, the amyloid nucleation score was 5.64 ± 0.061.

The substance FVTTENLVNSLVLNMARAKK had an amyloid nucleation score of 3.44 ± 0.097.

FVVQFMGADHAFKERFGGH yielded an amyloid nucleation score of 1.87 ± 0.2.

In turn, FWCGCNFVVHLYVTSSSLKP came in with an amyloid nucleation score of 8.006 ± 0.065.

Substance FWIDTYGGTNFKGCICIITG gave an amyloid nucleation score of 4.39 ± 0.11.

Consider FWLSTWSFNVVYPDGEAQKS, for which the amyloid nucleation score is -0.303 ± 0.48.

In the case of FWLSYTDLWNNY, the amyloid nucleation score result is “inactive”.

On to FWRAFMLHWGNFLLMRALHE, for which the amyloid nucleation score entry is “inactive”.

The substance FWRKVCVDDRTT gave an amyloid nucleation score of -0.121 ± 0.43.

As to FWRLWIVCIPLVYLRR, the amyloid nucleation score is 0.131 ± 1.

For the substance FWSIMWLVCPGAMWCNT, the amyloid nucleation score is 1.84 ± 0.28.

FYAIGFLIGGLHFWDWHIWF gave an amyloid nucleation score of -0.189 ± 0.64.

On to FYECNMSQVRDFPLHMYRYS, for which the amyloid nucleation score entry is “inactive”.

In the case of FYIIRD, the amyloid nucleation score is -0.866 ± 0.76.

Consider FYITRLVHFNLIYEGLGFLR, for which the amyloid nucleation score was 1.05 ± 0.23.

Substance FYKGYACHITAQYNLCVDNA showed an amyloid nucleation score of -0.146 ± 1.

Substance FYLGYQTRCYSLIGDIE registered an amyloid nucleation score of 3.51 ± 0.05.

Consider FYLRFNTFVSDTNCLTDWLA, for which the amyloid nucleation score came out at 3.46 ± 0.087.

For the substance FYQFLNSNGKYTGVYGAAPR, the amyloid nucleation score is -1.01 ± 0.41.

FYRNLLTFFYGVSFN came in with an amyloid nucleation score of -0.807 ± 1.

For the substance FYSFLFFHPIGMFARVYKCF, the amyloid nucleation score result was “inactive”.

In the case of FYSLLCTFPSLLTDLLLVHR, the amyloid nucleation score was -0.66 ± 0.26.

As for FYSTLFHFPYLVDQMYGPTI, the amyloid nucleation score is -1.29 ± 1.

For the substance FYVSAFMHIKVLYPVNNRLG, the amyloid nucleation score was found to be 3.62 ± 0.11.

Take FYWNMYGDFDFDPSAPGTNG: the amyloid nucleation score result was “inactive”.

As for GADGCCHNMDCGFLNINWTN, the amyloid nucleation score was determined as 8.959 ± 0.049.

GADGTSVLDFCDSVTV had an amyloid nucleation score of -1.32 ± 0.44.

On to GAGPEEPDSLDEVIVT, for which the amyloid nucleation score was 0.202 ± 0.3.

In turn, GALGTRRFSGMCLVCESRSG yielded an amyloid nucleation score of 5.28 ± 0.097.

GAMTSMDVCL: the amyloid nucleation score is -0.062 ± 0.65.

In turn, GANMLETV gave an amyloid nucleation score of -0.085 ± 0.47.

Take GATCTSCDRCIALVSGGRKR: the amyloid nucleation score was determined as 0.313 ± 0.44.

As to GCDVDKVNGRRVVYPDTEGL, the amyloid nucleation score came out at 0.697 ± 0.81.

In turn, GCGCATGREDTPGNIGWMV returned an amyloid nucleation score of 0.507 ± 0.25.

GCIIFGYLG showed an amyloid nucleation score of 1.57 ± 0.16.

In the case of GCISVNCHSLLRTHAFRG, the amyloid nucleation score came out at 1.28 ± 0.1.

Turning to GCKSGDQDLALRNGCRKQRS, the amyloid nucleation score was 0.594 ± 0.45.

In the case of GCRGHFMYRTW, the amyloid nucleation score result was “inactive”.

As to GCRHYYWMMCNLVTFMKRES, the amyloid nucleation score is 7.237 ± 0.028.

GCRRETEDVSGRLCCVVWSL: the amyloid nucleation score was 0.206 ± 0.5.

Consider GCSWEITDVHGGRLKLAMDP, for which the amyloid nucleation score was found to be 1.12 ± 0.32.

GCYISLHMCLE: the amyloid nucleation score is 3.84 ± 0.049.

GDCNGSLLKWWR displayed an amyloid nucleation score of 0.395 ± 0.55.

The substance GDHRFMSVVYVFYQSLNGVV registered an amyloid nucleation score of 3.41 ± 0.049.

Substance GDPDQVYSFR showed an amyloid nucleation score of 0.034 ± 1.1.

In the case of GDQIWNYGSLAETVTASTWS, the amyloid nucleation score amounted to 0.509 ± 0.21.

GDSGFKLI: the amyloid nucleation score was -0.105 ± 0.39.

On to GDSVLLYKWYMLGCWPIGSC, for which the amyloid nucleation score is 4.31 ± 0.056.

For GDTAWFKVDQLPRLPNTRLQ, the amyloid nucleation score is 0.998 ± 0.74.

The substance GDTIVSSGKVSCQRHASFLI yielded an amyloid nucleation score of 0.959 ± 0.74.

As for GDWSYGMGFNMVAMRNWEYL, the amyloid nucleation score was -0.512 ± 0.63.

Regarding GEAMSMTEQMTLTRYNYFMY, the amyloid nucleation score result was “inactive”.

As for GEIAPGWEQLWDNEWGSDWA, the amyloid nucleation score was -0.051 ± 0.39.

For the substance GFNSNGTFHFSQSVT, the amyloid nucleation score was -0.001 ± 0.65.

In the case of GFPLLHTGILVSNLYMLRAR, the amyloid nucleation score is -0.536 ± 1.1.

The substance GFPRKSTDDLNILLNL registered an amyloid nucleation score of -1.47 ± 0.78.

GFSLVW returned an amyloid nucleation score of -0.413 ± 0.41.

For the substance GFSRRGELHVSVYHIRDTFG, the amyloid nucleation score is 4.88 ± 0.081.

GFWFLGCPLYYLVAIFKWII: the amyloid nucleation score entry was “inactive”.

Take GGELP: the amyloid nucleation score was -0.719 ± 0.79.

As for GGGGCSSDFTQKTPPGQAKA, the amyloid nucleation score is -0.102 ± 0.36.

GGMPVFISVTVLYEWNDFLF: the amyloid nucleation score stood at 6.671 ± 0.032.

GGNIGVSYLRWCARINCWWK yielded an amyloid nucleation score of 5.49 ± 0.062.

GGQLGGPWPANSLYNVTAVT returned an amyloid nucleation score of -0.075 ± 0.31.

With GGSMSGFLSCGMI, the amyloid nucleation score was -1.02 ± 0.22.

As to GGTDMATFNVPKNEVRDRRG, the amyloid nucleation score was 1.4 ± 0.25.

Substance GGWRVSGNTSRSISRPCWRG showed an amyloid nucleation score of 0.483 ± 0.27.

In the case of GHHLISSDFFDYWGHNMFSG, the amyloid nucleation score entry is “inactive”.

In the case of GHVHQNLMRLVNFSKKSTSL, the amyloid nucleation score was 4.95 ± 0.055.

Consider GHYKFSIVFPVACLIDRFSF, for which the amyloid nucleation score is 5.13 ± 0.089.

Substance GICLSNTGRMCFG showed an amyloid nucleation score of 0.009 ± 0.39.

For the substance GIFYSRL, the amyloid nucleation score was -0.089 ± 0.61.

For GIHGIIITRV, the amyloid nucleation score was determined as 3.22 ± 0.14.

In turn, GIHLVFGFMEWRVMSTLKVS came in with an amyloid nucleation score of -0.584 ± 0.64.

Consider GIIDLIYCNAEEHSHWGDFA, for which the amyloid nucleation score was -1.17 ± 0.62.

With GIKFCEPCDGGHGDGIWPLT, the amyloid nucleation score came out at 0.708 ± 0.29.

GIKRMCMVPPVIKSNAYSLN yielded an amyloid nucleation score of 2.95 ± 0.062.

With GIMLLSCFDCGGLSTLGHLA, the amyloid nucleation score was 7.56 ± 0.082.

Substance GIMSNLGQSPRVRSHSRRQQ displayed an amyloid nucleation score of 0.747 ± 0.51.

In turn, GIMSVGTAKWRDGQPSACRK registered an amyloid nucleation score of 0.996 ± 0.37.

In the case of GISSSHPRTNGHRQYLNFGV, the amyloid nucleation score was -0.627 ± 0.61.

GITCCSMSRRFCFRGEGTEW showed an amyloid nucleation score of 3.81 ± 0.074.

Consider GITFPGFI, for which the amyloid nucleation score is 0.115 ± 0.28.

GIVFIYMNRPSFVVDDLTAG showed an amyloid nucleation score of 7.27 ± 0.078.

Turning to GIWWQHNGFEYDFGNLSC, the amyloid nucleation score was -0.165 ± 0.35.

The substance GIYYTT registered an amyloid nucleation score of -0.854 ± 0.28.

GKCTGRPPMNHSSLL came in with an amyloid nucleation score of 0.832 ± 0.39.

Substance GKDCSRVNKHWCQRGRQGMV displayed an amyloid nucleation score of 0.922 ± 0.58.

As to GKIKTVFWSKDLRFVFIMCV, the amyloid nucleation score was -0.633 ± 0.48.

GKKTAGDIRCWWRWSLGCSP yielded an amyloid nucleation score of 0.731 ± 0.57.
